Drawing on patent US20100036111, this text covers activity for three sequences.

Data set [1] concerns the target Klenow fragment exo- (KF exo-) (UniProt P00582). To be noted: n=Ds (7-(2-thienyl)-imidazo[4,5-b]pyridine); dPa'TP insertion Vmax/KM; 10 mM MgCl2 pH 7.5 37C.
Data set [2] shares this target. To be noted: n=Pa' (4-propynylpyrrole-2-carbaldehyde); dDsTP insertion Vmax/KM; 10 mM MgCl2 pH 7.5 37C.
For data set [3] the target is unchanged. The following applies: n=Pa (pyrrole-2-carbaldehyde); dDsTP insertion; Vmax/KM as printed (KM 26 uM and Vmax 28 imply 1.1e6); 10 mM MgCl2 pH 7.5 37C.

Like-named read-outs stand apart in the source and are kept apart here.

Klenow fragment exo- (KF exo-), sequence (P00582 324-928): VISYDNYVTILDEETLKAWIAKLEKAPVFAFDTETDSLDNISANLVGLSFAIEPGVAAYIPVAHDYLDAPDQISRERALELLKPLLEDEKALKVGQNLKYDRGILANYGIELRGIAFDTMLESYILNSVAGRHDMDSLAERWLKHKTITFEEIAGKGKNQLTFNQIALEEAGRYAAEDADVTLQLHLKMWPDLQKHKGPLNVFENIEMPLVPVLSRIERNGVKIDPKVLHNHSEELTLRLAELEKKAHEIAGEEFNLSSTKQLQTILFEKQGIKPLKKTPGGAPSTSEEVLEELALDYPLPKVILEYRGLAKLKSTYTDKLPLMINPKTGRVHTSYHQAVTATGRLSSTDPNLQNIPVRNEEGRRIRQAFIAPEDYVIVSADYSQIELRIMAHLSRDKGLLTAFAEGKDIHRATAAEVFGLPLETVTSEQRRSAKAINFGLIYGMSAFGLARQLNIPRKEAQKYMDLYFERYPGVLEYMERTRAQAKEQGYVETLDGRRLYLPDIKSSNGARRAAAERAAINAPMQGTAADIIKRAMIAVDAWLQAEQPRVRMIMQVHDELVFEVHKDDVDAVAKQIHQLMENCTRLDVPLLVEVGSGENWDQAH

“AGCTCTNTCTTCCTCCCTATAGTGAGTCGTATTAT / ACTCACTATAGGGAGGAAGA [temp35Ds-1/primer]”: the activity in data set [1] came to 260000 %/min/M.
Take “TCGAGANAGAAGCTCCCTATAGTGAGTCGTATTAT / ACTCACTATAGGGAGCTTCT [temp35Pa'-2/primer]”: the activity in data set [2] was 880000 %/min/M.
“TCGAGANAGAAGCTCCCTATAGTGAGTCGTATTAT / ACTCACTATAGGGAGCTTCT [temp35Pa-2/primer]”: the activity in data set [3] was 11000 %/min/M.
